± gives the standard deviation of the averaged measurements.
Legend:
Saccharomyces cerevisiae [1] = experiment: protein stability index of tFT-peptide fusion (C-terminal peptide) (PSI (0-1 scale)); higher = more stable (slower turnover); settings: genetic background: wild type; temperature: 30 C
Saccharomyces cerevisiae [2] = experiment: as above
Procedure: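 MPS profiling in S. cerevisiae of the tFT-X12 degron library: putative degron peptides plus stable controls, 12 aa, fused to the C-terminus of a sfGFP-mCherry timer. Cells are FACS-sorted into 8 mCherry/sfGFP bins and deep-sequenced. PSI runs from 0 (unstable) to 1 (stable). Backgrounds are wild type, das1Δ and doa10Δ at 30 °C, and wild type, das1Δ, cdc34-1 and cdc53-1 at 37 °C; 2-3 technical replicates each.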

[3] = genetic background: cdc34-1, temperature: 37 C
[4] = genetic background: cdc53-1, temperature: 37 C
[5] = genetic background: das1 deletion, temperature: 30 C
[6] = genetic background: das1 deletion, temperature: 37 C
[7] = genetic background: doa10 deletion, temperature: 30 C
[8] = genetic background: wild type, temperature: 30 C
[9] = genetic background: wild type, temperature: 37 C
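Note: PSI is a weighted mean of sequencing reads over stability bins, variants kept only with over 10 reads, mCherry proximal and sfGFP distal, peptide attached via GGGS linker.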

Sequence: VFSLAFYLVLFF
- protein stability index (Saccharomyces cerevisiae [1]): 0.343 ± 0.056
- protein stability index (Saccharomyces cerevisiae [2]; [3]): 0.326 ± 0.063
- protein stability index (Saccharomyces cerevisiae [2]; [4]): 0.349 ± 0.0065
- protein stability index (Saccharomyces cerevisiae [2]; [5]): 0.346 ± 0.025
- protein stability index (Saccharomyces cerevisiae [2]; [6]): 0.46 ± 0.015
- protein stability index (Saccharomyces cerevisiae [2]; [7]): 0.415 ± 0.011
- protein stability index (Saccharomyces cerevisiae [2]; [8]): 0.319 ± 0.029
- protein stability index (Saccharomyces cerevisiae [2]; [9]): 0.418 ± 0.037

Sequence: VFSRVLSVLLSA
- protein stability index (Saccharomyces cerevisiae [1]): 0.386 ± 0.0071
- protein stability index (Saccharomyces cerevisiae [2]; [3]): 0.493 ± 0.011
- protein stability index (Saccharomyces cerevisiae [2]; [4]): 0.514 ± 0.033
- protein stability index (Saccharomyces cerevisiae [2]; [5]): 0.405 ± 0.029
- protein stability index (Saccharomyces cerevisiae [2]; [6]): 0.5429 ± 0.0039
- protein stability index (Saccharomyces cerevisiae [2]; [7]): 0.2377 ± 0.0015
- protein stability index (Saccharomyces cerevisiae [2]; [8]): 0.282 ± 0.027
- protein stability index (Saccharomyces cerevisiae [2]; [9]): 0.457 ± 0.024

Sequence: VFVGWVLCVVGG
- protein stability index (Saccharomyces cerevisiae [1]): 0.218 ± 0.045
- protein stability index (Saccharomyces cerevisiae [2]; [3]): 0.04576 ± 0.00018
- protein stability index (Saccharomyces cerevisiae [2]; [4]): 0.161 ± 0.0032
- protein stability index (Saccharomyces cerevisiae [2]; [5]): 0.143 ± 0.021
- protein stability index (Saccharomyces cerevisiae [2]; [6]): 0.2762 ± 0.00081
- protein stability index (Saccharomyces cerevisiae [2]; [7]): 0.0778 ± 0.03
- protein stability index (Saccharomyces cerevisiae [2]; [8]): 0.132 ± 0.027
- protein stability index (Saccharomyces cerevisiae [2]; [9]): 0.2377 ± 0.002

Sequence: VFWLLVAVLRYW
- protein stability index (Saccharomyces cerevisiae [1]): 0.307 ± 0.06
- protein stability index (Saccharomyces cerevisiae [2]; [3]): 0.224 ± 0.018
- protein stability index (Saccharomyces cerevisiae [2]; [4]): 0.247 ± 0.0056
- protein stability index (Saccharomyces cerevisiae [2]; [5]): 0.243 ± 0.023
- protein stability index (Saccharomyces cerevisiae [2]; [6]): 0.354 ± 0.0044
- protein stability index (Saccharomyces cerevisiae [2]; [7]): 0.263 ± 0.011
- protein stability index (Saccharomyces cerevisiae [2]; [8]): 0.222 ± 0.016
- protein stability index (Saccharomyces cerevisiae [2]; [9]): 0.325 ± 0.013

Sequence: VGVSVVMVVEVP
- protein stability index (Saccharomyces cerevisiae [1]): 0.0948 ± 0.012
- protein stability index (Saccharomyces cerevisiae [2]; [3]): 0.0286 ± 0.0009
- protein stability index (Saccharomyces cerevisiae [2]; [4]): 0.0328 ± 0.00097
- protein stability index (Saccharomyces cerevisiae [2]; [5]): 0.0504 ± 0.005
- protein stability index (Saccharomyces cerevisiae [2]; [6]): 0.0524 ± 0.0097
- protein stability index (Saccharomyces cerevisiae [2]; [7]): 0.0409 ± 0.011
- protein stability index (Saccharomyces cerevisiae [2]; [8]): 0.042 ± 0.0027
- protein stability index (Saccharomyces cerevisiae [2]; [9]): 0.0384 ± 0.0064

Sequence: VGVVLWWVVLMV
- protein stability index (Saccharomyces cerevisiae [1]): 0.241 ± 0.017
- protein stability index (Saccharomyces cerevisiae [2]; [3]): 0.118 ± 0.014
- protein stability index (Saccharomyces cerevisiae [2]; [4]): 0.181 ± 0.0027
- protein stability index (Saccharomyces cerevisiae [2]; [5]): 0.184 ± 0.024
- protein stability index (Saccharomyces cerevisiae [2]; [6]): 0.28 ± 0.0034
- protein stability index (Saccharomyces cerevisiae [2]; [7]): 0.154 ± 0.012
- protein stability index (Saccharomyces cerevisiae [2]; [8]): 0.16 ± 0.029
- protein stability index (Saccharomyces cerevisiae [2]; [9]): 0.251 ± 0.0034

Sequence: VGYHCIVGVIFL
- protein stability index (Saccharomyces cerevisiae [1]): 0.524 ± 0.081
- protein stability index (Saccharomyces cerevisiae [2]; [3]): 0.467 ± 0.031
- protein stability index (Saccharomyces cerevisiae [2]; [4]): 0.491 ± 0.041
- protein stability index (Saccharomyces cerevisiae [2]; [5]): 0.359 ± 0.036
- protein stability index (Saccharomyces cerevisiae [2]; [6]): 0.545 ± 0.0059
- protein stability index (Saccharomyces cerevisiae [2]; [7]): 0.326 ± 0.012
- protein stability index (Saccharomyces cerevisiae [2]; [8]): 0.372 ± 0.013
- protein stability index (Saccharomyces cerevisiae [2]; [9]): 0.512 ± 0.015

Sequence: VIRFNSAPRFLV
- protein stability index (Saccharomyces cerevisiae [1]): 0.213 ± 0.047
- protein stability index (Saccharomyces cerevisiae [2]; [3]): 0.614 ± 0.054
- protein stability index (Saccharomyces cerevisiae [2]; [4]): 0.7214 ± 0.0026
- protein stability index (Saccharomyces cerevisiae [2]; [5]): 0.629 ± 0.026
- protein stability index (Saccharomyces cerevisiae [2]; [6]): 0.7443 ± 0.0009
- protein stability index (Saccharomyces cerevisiae [2]; [7]): 0.108 ± 0.031
- protein stability index (Saccharomyces cerevisiae [2]; [8]): 0.125 ± 0.016
- protein stability index (Saccharomyces cerevisiae [2]; [9]): 0.236 ± 0.0043

Sequence: VIWIRMISFFVW
- protein stability index (Saccharomyces cerevisiae [1]): 0.245 ± 0.015
- protein stability index (Saccharomyces cerevisiae [2]; [3]): 0.192 ± 0.035
- protein stability index (Saccharomyces cerevisiae [2]; [4]): 0.283 ± 0.024
- protein stability index (Saccharomyces cerevisiae [2]; [5]): 0.2 ± 0.043
- protein stability index (Saccharomyces cerevisiae [2]; [6]): 0.35 ± 0.013
- protein stability index (Saccharomyces cerevisiae [2]; [7]): 0.174 ± 0.01
- protein stability index (Saccharomyces cerevisiae [2]; [8]): 0.188 ± 0.034
- protein stability index (Saccharomyces cerevisiae [2]; [9]): 0.346 ± 0.048

Sequence: VIYNSALLLVRL
- protein stability index (Saccharomyces cerevisiae [1]): 0.391 ± 0.041
- protein stability index (Saccharomyces cerevisiae [2]; [3]): 0.273 ± 0.031
- protein stability index (Saccharomyces cerevisiae [2]; [4]): 0.225 ± 0.01
- protein stability index (Saccharomyces cerevisiae [2]; [5]): 0.249 ± 0.031
- protein stability index (Saccharomyces cerevisiae [2]; [6]): 0.407 ± 0.037
- protein stability index (Saccharomyces cerevisiae [2]; [7]): 0.325 ± 0.014
- protein stability index (Saccharomyces cerevisiae [2]; [8]): 0.25 ± 0.023
- protein stability index (Saccharomyces cerevisiae [2]; [9]): 0.386 ± 0.01

Sequence: VLAFFPLFFFLS
- protein stability index (Saccharomyces cerevisiae [1]): 0.2054 ± 0.002
- protein stability index (Saccharomyces cerevisiae [2]; [3]): 0.434 ± 0.035
- protein stability index (Saccharomyces cerevisiae [2]; [4]): 0.5049 ± 0.0042
- protein stability index (Saccharomyces cerevisiae [2]; [5]): 0.439 ± 0.033
- protein stability index (Saccharomyces cerevisiae [2]; [6]): 0.5732 ± 0.0029
- protein stability index (Saccharomyces cerevisiae [2]; [7]): 0.144 ± 0.013
- protein stability index (Saccharomyces cerevisiae [2]; [8]): 0.126 ± 0.015
- protein stability index (Saccharomyces cerevisiae [2]; [9]): 0.245 ± 0.0039

Sequence: VLGARWHWIYIA
- protein stability index (Saccharomyces cerevisiae [1]): 0.111 ± 0.024
- protein stability index (Saccharomyces cerevisiae [2]; [3]): 0.281 ± 0.071
- protein stability index (Saccharomyces cerevisiae [2]; [4]): 0.526 ± 0.0082
- protein stability index (Saccharomyces cerevisiae [2]; [5]): 0.501 ± 0.014
- protein stability index (Saccharomyces cerevisiae [2]; [6]): 0.6636 ± 0.0012
- protein stability index (Saccharomyces cerevisiae [2]; [7]): 0.0782 ± 0.011
- protein stability index (Saccharomyces cerevisiae [2]; [8]): 0.078 ± 0.023
- protein stability index (Saccharomyces cerevisiae [2]; [9]): 0.06742 ± 0.00037

Sequence: VLGLYSLLLSFF
- protein stability index (Saccharomyces cerevisiae [1]): 0.337 ± 0.007
- protein stability index (Saccharomyces cerevisiae [2]; [3]): 0.567 ± 0.068
- protein stability index (Saccharomyces cerevisiae [2]; [4]): 0.6627 ± 0.0015
- protein stability index (Saccharomyces cerevisiae [2]; [5]): 0.524 ± 0.034
- protein stability index (Saccharomyces cerevisiae [2]; [6]): 0.644 ± 0.016
- protein stability index (Saccharomyces cerevisiae [2]; [7]): 0.277 ± 0.013
- protein stability index (Saccharomyces cerevisiae [2]; [8]): 0.305 ± 0.0096
- protein stability index (Saccharomyces cerevisiae [2]; [9]): 0.4532 ± 0.0012

Sequence: VLGRCWWIVSDL
- protein stability index (Saccharomyces cerevisiae [1]): 0.566 ± 0.19
- protein stability index (Saccharomyces cerevisiae [2]; [3]): 0.736 ± 0.037
- protein stability index (Saccharomyces cerevisiae [2]; [4]): 0.782 ± 0.011
- protein stability index (Saccharomyces cerevisiae [2]; [5]): 0.661 ± 0.016
- protein stability index (Saccharomyces cerevisiae [2]; [6]): 0.763 ± 0.015
- protein stability index (Saccharomyces cerevisiae [2]; [7]): 0.659 ± 0.025
- protein stability index (Saccharomyces cerevisiae [2]; [8]): 0.67 ± 0.024
- protein stability index (Saccharomyces cerevisiae [2]; [9]): 0.755 ± 0.0049

Sequence: VLISLVLLFRCW
- protein stability index (Saccharomyces cerevisiae [1]): 0.408 ± 0.041
- protein stability index (Saccharomyces cerevisiae [2]; [3]): 0.23 ± 0.015
- protein stability index (Saccharomyces cerevisiae [2]; [4]): 0.244 ± 0.038
- protein stability index (Saccharomyces cerevisiae [2]; [5]): 0.262 ± 0.023
- protein stability index (Saccharomyces cerevisiae [2]; [6]): 0.386 ± 0.016
- protein stability index (Saccharomyces cerevisiae [2]; [7]): 0.307 ± 0.028
- protein stability index (Saccharomyces cerevisiae [2]; [8]): 0.248 ± 0.03
- protein stability index (Saccharomyces cerevisiae [2]; [9]): 0.332 ± 0.017

Sequence: VLLMFFFRFSAL
- protein stability index (Saccharomyces cerevisiae [1]): 0.523 ± 0.049
- protein stability index (Saccharomyces cerevisiae [2]; [3]): 0.589 ± 0.053
- protein stability index (Saccharomyces cerevisiae [2]; [4]): 0.717 ± 0.014
- protein stability index (Saccharomyces cerevisiae [2]; [5]): 0.545 ± 0.033
- protein stability index (Saccharomyces cerevisiae [2]; [6]): 0.685 ± 0.02
- protein stability index (Saccharomyces cerevisiae [2]; [7]): 0.483 ± 0.011
- protein stability index (Saccharomyces cerevisiae [2]; [8]): 0.491 ± 0.022
- protein stability index (Saccharomyces cerevisiae [2]; [9]): 0.624 ± 0.013

Sequence: VLVFYFCFSFCS
- protein stability index (Saccharomyces cerevisiae [1]): 0.205 ± 0.049
- protein stability index (Saccharomyces cerevisiae [2]; [3]): 0.144 ± 0.013
- protein stability index (Saccharomyces cerevisiae [2]; [4]): 0.282 ± 0.043
- protein stability index (Saccharomyces cerevisiae [2]; [5]): 0.126 ± 0.025
- protein stability index (Saccharomyces cerevisiae [2]; [6]): 0.297 ± 0.0048
- protein stability index (Saccharomyces cerevisiae [2]; [7]): 0.11 ± 0.015
- protein stability index (Saccharomyces cerevisiae [2]; [8]): 0.129 ± 0.029
- protein stability index (Saccharomyces cerevisiae [2]; [9]): 0.273 ± 0.016

Sequence: VLVLSFLYRMVK
- protein stability index (Saccharomyces cerevisiae [1]): 0.376 ± 0.033
- protein stability index (Saccharomyces cerevisiae [2]; [3]): 0.353 ± 0.065
- protein stability index (Saccharomyces cerevisiae [2]; [4]): 0.4364 ± 0.0007
- protein stability index (Saccharomyces cerevisiae [2]; [5]): 0.312 ± 0.054
- protein stability index (Saccharomyces cerevisiae [2]; [6]): 0.507 ± 0.013
- protein stability index (Saccharomyces cerevisiae [2]; [7]): 0.271 ± 0.013
- protein stability index (Saccharomyces cerevisiae [2]; [8]): 0.304 ± 0.017
- protein stability index (Saccharomyces cerevisiae [2]; [9]): 0.436 ± 0.032

Sequence: VLVSYAIVILYL
- protein stability index (Saccharomyces cerevisiae [1]): 0.193 ± 0.002
- protein stability index (Saccharomyces cerevisiae [2]; [3]): 0.128 ± 0.0017
- protein stability index (Saccharomyces cerevisiae [2]; [4]): 0.141 ± 0.03
- protein stability index (Saccharomyces cerevisiae [2]; [5]): 0.136 ± 0.043
- protein stability index (Saccharomyces cerevisiae [2]; [6]): 0.293 ± 0.029
- protein stability index (Saccharomyces cerevisiae [2]; [7]): 0.12 ± 0.008
- protein stability index (Saccharomyces cerevisiae [2]; [8]): 0.149 ± 0.019
- protein stability index (Saccharomyces cerevisiae [2]; [9]): 0.268 ± 0.026

Sequence: VLVVLVVCRRAE
- protein stability index (Saccharomyces cerevisiae [1]): 0.324 ± 0.032
- protein stability index (Saccharomyces cerevisiae [2]; [3]): 0.247 ± 0.039
- protein stability index (Saccharomyces cerevisiae [2]; [4]): 0.412 ± 0.0043
- protein stability index (Saccharomyces cerevisiae [2]; [5]): 0.226 ± 0.028
- protein stability index (Saccharomyces cerevisiae [2]; [6]): 0.438 ± 0.0089
- protein stability index (Saccharomyces cerevisiae [2]; [7]): 0.18 ± 0.041
- protein stability index (Saccharomyces cerevisiae [2]; [8]): 0.226 ± 0.029
- protein stability index (Saccharomyces cerevisiae [2]; [9]): 0.422 ± 0.0083

Source: the supplement of paper PMC10724198
